Results published in patent publication US8992886B2, “Cyclic peptide analogues for non-invasive imaging of pancreatic beta-cells” (Board of Regents, the University of Texas System, priority 2009, dated 2015).

How the values were obtained:
in vivo = assay: in vivo; set-up: species or system Sprague-Dawley rats; conditions: Sprague-Dawley, rat, iv, total radioactivity
Experimental: Given this encouraging in vitro result, the tissue distribution of both conjugates in normal Sprague-Dawley rats was examined. […] The radiolabeled compounds were diluted with saline and be injected into rats (n=4 at each time point) via the tail vein. The animal number at each time point was chosen for statistical analysis. […] At the selected post-injection time points, animals were sacrificed, and organs of interest removed, weighed, and counted. The percent injected dose per gram (% ID/g) and percent injected dose per organ (% ID/organ) was calculated by comparison to a weighed, counted standard. Pharmacokinetic parameters were estimated by using either one- or two-compartment model.

GLP-1R in pancreas = molecular target: T1, GLP-1R in pancreas (Mus musculus, UniProt O35659); assay: Dynamic PET/CT imaging of ^64Cu-labeled peptides in normal mice
T1 sequence (O35659 22-463): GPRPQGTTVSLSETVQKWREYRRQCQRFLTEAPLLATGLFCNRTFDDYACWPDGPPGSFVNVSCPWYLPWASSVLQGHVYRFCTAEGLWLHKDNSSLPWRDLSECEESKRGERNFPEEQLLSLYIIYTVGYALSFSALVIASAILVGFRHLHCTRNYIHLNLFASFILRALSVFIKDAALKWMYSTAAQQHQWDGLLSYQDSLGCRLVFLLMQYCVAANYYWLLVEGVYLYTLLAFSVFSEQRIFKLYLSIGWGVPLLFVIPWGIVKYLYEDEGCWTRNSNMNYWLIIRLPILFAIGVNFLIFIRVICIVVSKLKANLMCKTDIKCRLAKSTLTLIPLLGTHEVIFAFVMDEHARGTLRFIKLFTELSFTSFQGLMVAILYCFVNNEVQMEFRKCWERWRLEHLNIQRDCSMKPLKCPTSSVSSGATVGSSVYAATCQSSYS
Experimental: Dynamic PET/CT scans were performed on a Siemens Inveon PET-CT multimodality system using normal male BABL/c mice (n=3 per peptide). Post-PET biodistribution was performed to verify the imaging findings.
In addition, D-Ala^8 was also introduced to prevent the degradation by DPP-IV.
FIG. 9 are graphs that show a comparison of contrast in pancreatic, liver and kidney microPET scans. […] Quantitative analysis based on microPET/CT 0-60 min dynamic scans, animal model: Normal BABL/c mice at 6-8 wks.

GLP-1R = GLP-1R (Homo sapiens, UniProt P43220); assay: cAMP accumulation in HEK293 cells stably expressing GLP-1R-GFP; assay type: cell-based; set-up: GFP; expressed in transfected cells; host or cells: HEK293
Excerpt: In all cases, reactions were stopped with 1.2 M trichloroacetic acid and cAMP was isolated by the two column chromatographic method.

GLP-1R, sequence (P43220 24-463): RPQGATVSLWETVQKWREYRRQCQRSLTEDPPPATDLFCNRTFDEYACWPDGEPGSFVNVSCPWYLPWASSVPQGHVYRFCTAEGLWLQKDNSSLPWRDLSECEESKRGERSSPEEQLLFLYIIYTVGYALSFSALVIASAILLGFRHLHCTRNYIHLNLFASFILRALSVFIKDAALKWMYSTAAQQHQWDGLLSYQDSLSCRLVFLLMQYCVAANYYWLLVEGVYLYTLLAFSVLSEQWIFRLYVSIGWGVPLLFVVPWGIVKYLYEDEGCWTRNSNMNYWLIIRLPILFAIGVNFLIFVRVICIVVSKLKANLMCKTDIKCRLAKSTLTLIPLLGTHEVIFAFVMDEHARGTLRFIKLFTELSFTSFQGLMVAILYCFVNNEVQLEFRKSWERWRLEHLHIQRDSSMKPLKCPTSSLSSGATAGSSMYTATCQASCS

For `CC[C@H](C)[C@H](NC(=O)[C@H](Cc1ccccc1)NC(=O)[C@H](CCC(=O)O)NC(=O)[C@H](CCCCN)NC(=O)[C@H](C)NC(=O)[C@H](C)NC(=O)[C@H](CCC(N)=O)NC(=O)CNC(=O)[C@H](CCC(=O)O)NC(=O)[C@H](CC(C)C)NC(=O)[C@H](Cc1ccc(O)cc1)NC(=O)[C@H](CO)NC(=O)[C@H](CO)NC(=O)[C@@H](NC(=O)[C@H](CC(=O)O)NC(=O)[C@H](CO)NC(=O)[C@@H](NC(=O)[C@H](Cc1ccccc1)NC(=O)[C@@H](NC(=O)CNC(=O)[C@H](CCC(=O)O)NC(=O)[C@@H](C)NC(=O)[C@@H](N)Cc1c[nH]cn1)[C@@H](C)O)[C@@H](C)O)C(C)C)C(=O)N[C@@H](C)C(=O)N[C@@H](Cc1c[nH]c2ccccc12)C(=O)N[C@@H](CC(C)C)C(=O)N[C@H](C(=O)N[C@@H](CCCCN)C(=O)NCC(=O)N[C@@H](CCCNC(=N)N)C(=O)NCCCCCC(=O)N[C@@H](CSC1CC(=O)N(CCNC(=O)CN2CCN(CC(=O)O)CCN(CC(=O)O)CCN(CC(=O)O)CC2)C1=O)C(N)=O)C(C)C` (stereo partly drawn) (64Cu complex, metal not drawn) [D-GLP-1, [D-Ala^8]GLP-1-Ahx-Cys], the tissue uptake at 20 min (in vivo; % ID/g blood) was 0.91 ± 0.39 %ID/g, the tissue uptake at 1 h (in vivo; % ID/g blood) was 0.41 ± 0.07 %ID/g and the tissue uptake at 4 h (in vivo; % ID/g blood) was 0.45 ± 0.02 %ID/g. It also gave a tissue uptake at 24 h (in vivo; % ID/g blood) of 0.14 ± 0.08 %ID/g, a tissue uptake at 20 min (in vivo; % ID/g fat) of 0.44 ± 0.6 %ID/g and a tissue uptake at 1 h (in vivo; % ID/g fat) of 0.28 ± 0.4 %ID/g. It also gave a tissue uptake at 4 h (in vivo; % ID/g fat) of 0.96 ± 0.88 %ID/g, a tissue uptake at 24 h (in vivo; % ID/g fat) of 0.78 ± 0.14 %ID/g and a tissue uptake at 20 min (in vivo; % ID/g heart) of 0.64 ± 0.16 %ID/g. For the same molecule, the tissue uptake at 1 h (in vivo; % ID/g heart) was 0.46 ± 0.21 %ID/g, the tissue uptake at 4 h (in vivo; % ID/g heart) was 0.15 ± 0.09 %ID/g and the tissue uptake at 24 h (in vivo; % ID/g heart) was 0.04 ± 0.05 %ID/g. It also gave a tissue uptake at 20 min (in vivo; % ID/g kidney) of 19.6 ± 0.91 %ID/g, a tissue uptake at 1 h (in vivo; % ID/g kidney) of 28.2 ± 5.83 %ID/g and a tissue uptake at 4 h (in vivo; % ID/g kidney) of 30.7 ± 9.53 %ID/g. It also gave a tissue uptake at 24 h (in vivo; % ID/g kidney) of 46.1 ± 10.9 %ID/g, a tissue uptake at 20 min (in vivo; % ID/g large int) of 0.45 ± 0.2 %ID/g and a tissue uptake at 1 h (in vivo; % ID/g large int) of 0.67 ± 0.7 %ID/g. It also gave a tissue uptake at 4 h (in vivo; % ID/g large int) of 0.77 ± 0.18 %ID/g, a tissue uptake at 24 h (in vivo; % ID/g large int) of 2.01 ± 0.02 %ID/g and a tissue uptake at 20 min (in vivo; % ID/g liver) of 2.69 ± 1.16 %ID/g. It also gave a tissue uptake at 1 h (in vivo; % ID/g liver) of 1.17 ± 0.45 %ID/g, a tissue uptake at 4 h (in vivo; % ID/g liver) of 1.56 ± 0.14 %ID/g and a tissue uptake at 24 h (in vivo; % ID/g liver) of 2.26 ± 0.16 %ID/g. The tissue uptake at 20 min (in vivo; % ID/g lung) was 4.03 ± 1.64 %ID/g, the tissue uptake at 1 h (in vivo; % ID/g lung) was 0.91 ± 0.12 %ID/g and the tissue uptake at 4 h (in vivo; % ID/g lung) was 0.77 ± 0.18 %ID/g. For the same molecule, the tissue uptake at 24 h (in vivo; % ID/g lung) was 1.21 ± 0.3 %ID/g, the tissue uptake at 20 min (in vivo; % ID/g muscle) was 0.3 ± 0.15 %ID/g and the tissue uptake at 1 h (in vivo; % ID/g muscle) was 0.63 ± 0.05 %ID/g. For the same molecule, the tissue uptake at 4 h (in vivo; % ID/g muscle) was 0.11 ± 0.13 %ID/g, the tissue uptake at 24 h (in vivo; % ID/g muscle) was 0.39 ± 0.29 %ID/g and the tissue uptake at 20 min (in vivo; % ID/g pancreas) was 3.58 ± 0.56 %ID/g. For the same molecule, the tissue uptake at 1 h (in vivo; % ID/g pancreas) was 2.19 ± 0.98 %ID/g, the tissue uptake at 4 h (in vivo; % ID/g pancreas) was 1.18 ± 0.12 %ID/g and the tissue uptake at 24 h (in vivo; % ID/g pancreas) was 0.99 ± 0.05 %ID/g. The tissue uptake at 20 min (in vivo; % ID/g small int) was 1.07 ± 0.73 %ID/g, the tissue uptake at 1 h (in vivo; % ID/g small int) was 1.02 ± 0.75 %ID/g and the tissue uptake at 4 h (in vivo; % ID/g small int) was 0.5 ± 0.25 %ID/g. It also gave a tissue uptake at 24 h (in vivo; % ID/g small int) of 0.91 ± 0.31 %ID/g, a tissue uptake at 20 min (in vivo; % ID/g spleen) of 0.22 ± 0.05 %ID/g and a tissue uptake at 1 h (in vivo; % ID/g spleen) of 0.23 ± 0.05 %ID/g. It also gave a tissue uptake at 4 h (in vivo; % ID/g spleen) of 0.26 ± 0.2 %ID/g, a tissue uptake at 24 h (in vivo; % ID/g spleen) of 0.52 ± 0.18 %ID/g and a tissue uptake at 20 min (in vivo; % ID/g stomach) of 1.02 ± 0.51 %ID/g. It also gave a tissue uptake at 1 h (in vivo; % ID/g stomach) of 0.49 ± 0.31 %ID/g, a tissue uptake at 4 h (in vivo; % ID/g stomach) of 0.23 ± 0.07 %ID/g and a tissue uptake at 24 h (in vivo; % ID/g stomach) of 0.25 ± 0.17 %ID/g. The “clearance from the pancreas” value (GLP-1R in pancreas; mouse, in vivo) was < 10 min.

With `CC[C@H](C)[C@H](NC(=O)[C@H](Cc1ccccc1)NC(=O)[C@H](CCC(=O)O)NC(=O)[C@H](CCCCN)NC(=O)[C@H](C)NC(=O)[C@H](C)NC(=O)[C@H](CCC(N)=O)NC(=O)[C@@H]1CCCCNC(=O)CC[C@H](NC(=O)[C@H](CO)NC(=O)[C@@H](NC(=O)[C@H](CC(=O)O)NC(=O)[C@H](CO)NC(=O)[C@@H](NC(=O)[C@H](Cc2ccccc2)NC(=O)[C@@H](NC(=O)CNC(=O)[C@H](CCC(=O)O)NC(=O)[C@@H](C)NC(=O)[C@@H](N)Cc2c[nH]cn2)[C@@H](C)O)[C@@H](C)O)C(C)C)C(=O)N[C@@H](Cc2ccc(O)cc2)C(=O)N[C@@H](CC(C)C)C(=O)N[C@@H](CCC(=O)O)C(=O)N1)C(=O)N[C@H]1CCC(=O)NCCCC[C@@H](C(=O)NCC(=O)N[C@@H](CCCNC(=N)N)C(=O)NCCCCCC(=O)N[C@@H](CSC2CC(=O)N(CCNC(=O)CN3CCN(CC(=O)O)CCN(CC(=O)O)CCN(CC(=O)O)CC3)C2=O)C(N)=O)NC(=O)[C@H](C(C)C)NC(=O)[C@H](CC(C)C)NC(=O)[C@H](Cc2c[nH]c3ccccc23)NC1=O` (stereo partly drawn) [EM2198, HXEGTFTSDVSEYLEKQAAKEFIEWLVKGR, wherein X is D-Ala] the pancreatic retention (GLP-1R in pancreas; ^64Cu labeled, normal mice, dynamic PET-CT) was > 30 min and the EC50 (GLP-1R) was ~1 nM.
